Sequences and labels used below:
B1: Rat serum albumin (other, UniProt P02770 25-608, looked up)
chain: EAHKSEIAHRFKDLGEQHFKGLVLIAFSQYLQKCPYEEHIKLVQEVTDFAKTCVADENAENCDKSIHTLFGDKLCAIPKLRDNYGELADCCAKQEPERNECFLQHKDDNPNLPPFQRPEAEAMCTSFQENPTSFLGHYLHEVARRHPYFYAPELLYYAEKYNEVLTQCCTESDKAACLTPKLDAVKEKALVAAVRQRMKCSSMQRFGERAFKAWAVARMSQRFPNAEFAEITKLATDVTKINKECCHGDLLECADDRAELAKYMCENQATISSKLQACCDKPVLQKSQCLAEIEHDNIPADLPSIAADFVEDKEVCKNYAEAKDVFLGTFLYEYSRRHPDYSVSLLLRLAKKYEATLEKCCAEGDPPACYGTVLAEFQPLVEEPKNLVKTNCELYEKLGEYGFQNAVLVRYTQKAPQVSTPTLVEAARNLGRVGTKCCTLPEAQRLPCVEDYLSAILNRLCVLHEKTPVSEKVTKCCSGSLVERRPCFSALTVDETYVPKEFKAETFTFHSDICTLPDKEKQIKKQTALAELVKHKPKATEDQLKTVMGDFAQFVDKCCKAADKDNCFATEGPNLVARSKEALA
notes: also called RSA

Experiment [1] addresses T1, Exendin 4 (G4S linker)3 DOM7h-14 dAb fusion (DAT0115).
T1 construct: also called Exendin 4 (G4S)3 DOM7h-14 fusion
Put plainly: SPR (Biacore), biotinylated albumin on streptavidin chip, fusion in solution. (In general: SPR reads the build-up and loss of mass on a sensor chip optically.)
Procedure: The analysis was performed using a streptavidin chip (SA) coated with biotinylated serum albumin. 200-1000 resonance units (RUs) of each serum albumin was immobilised on the chip. Flow cell 1 was uncoated, flow cell 2 was coated with HSA, flow cell 3 was coated with RSA and flow cell 4 was coated with CSA.
Affinity (KD) was calculated from the BIACORE traces by fitting on-rate and off-rate curves to traces generated by concentrations of dAb in the region of the KD.

The experiment “Rat serum albumin” has as its target B1. Put plainly: SPR (Biacore), albumin immobilised on CM5 chip, fusion in solution.
Procedure: (§1) The analysis was performed using a CMS Biacore chip (carboxymethylated dextran matrix) that was coated with serum albumin. About 1000 resonance units (RUs) of each serum albumin to be tested (human, rat and mouse serum albumin) was immobilised in acetate buffer pH 5.5. […] Affinity (KD) was calculated from the BIACORE traces by fitting on-rate and off-rate curves to traces generated by concentrations of dAb in the region of the KD.
A further experiment has as its target T2, Human serum albumin (human, UniProt P02768 25-609).
T2 construct: also called HSA
The description is as above.

In the next experiment the target is T3, Mouse serum albumin (mouse, UniProt P07724 25-608).
T3 construct: also called MSA
T3 sequence (P07724 25-608 limits assumed): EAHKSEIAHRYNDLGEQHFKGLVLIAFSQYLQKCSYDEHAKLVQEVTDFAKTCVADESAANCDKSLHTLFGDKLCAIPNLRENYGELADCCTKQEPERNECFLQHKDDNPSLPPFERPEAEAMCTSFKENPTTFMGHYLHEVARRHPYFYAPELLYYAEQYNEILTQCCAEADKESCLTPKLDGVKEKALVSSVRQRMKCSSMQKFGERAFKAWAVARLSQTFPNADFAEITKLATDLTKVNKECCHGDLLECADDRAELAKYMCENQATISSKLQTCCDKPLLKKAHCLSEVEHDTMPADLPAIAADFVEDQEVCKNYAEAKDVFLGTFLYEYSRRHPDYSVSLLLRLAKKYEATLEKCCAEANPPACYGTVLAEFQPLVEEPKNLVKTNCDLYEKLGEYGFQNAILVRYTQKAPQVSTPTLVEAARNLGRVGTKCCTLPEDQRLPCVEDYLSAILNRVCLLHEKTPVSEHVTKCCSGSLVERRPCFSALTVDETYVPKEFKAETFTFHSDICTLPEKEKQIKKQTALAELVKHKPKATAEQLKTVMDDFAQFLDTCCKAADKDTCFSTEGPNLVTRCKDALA
The description is as above.

For orientation: Kd means the concentration at which binding is half-saturated. Low values mean higher affinity, high ones lower affinity.

Procedure for Human serum albumin: as §1
Procedure for Mouse serum albumin: as §1

B1 came in with a Kd in experiment [1] of 2000 nM.

B2: 2xGLP-1 (7-37) A8G DOM7h-14 dAb fusion (DAT0114) (other)
chain: HGEGTFTSDVSSYLEGQAAKEFIAWLVKGRHGEGTFTSDVSSYLEGQAAKEFIAWLVKGRDIQMTQSPSSLSASVGDRVTITCRASQWIGSQLSWYQQKPGKAPKLLIMWRSSLQSGVPSRFSGSGSGTDFTLTISSLQPEDFATYYCAQGAALPRTFGQGTKVEIKA
notes: also called 2xGLP-1 (7-37) A8G DOM7h-14 fusion; 2xGLP-1 A8G DOM7h-14 fusion
For the molecule B2, the Kd with Rat serum albumin amounted to 700 nM; with Human serum albumin, 150 nM; with Mouse serum albumin, 130 nM.

B3: GLP-1 (7-37) A8G, helical linker, DOM7h-14 dAb fusion (DAT0120) (other)
chain: HGEGTFTSDVSSYLEGQAAKEFIAWLVKGRGKEAAAKEAAAKEAAAKELAAKEAAAKEAAAKEAAAKELAADIQMTQSPSSLSASVGDRVTITCRASQWIGSQLSWYQQKPGKAPKLLIMWRSSLQSGVPSRFSGSGSGTDFTLTISSLQPEDFATYYCAQGAALPRTFGQGTKVEIKR
notes: also called GLP-1 A8G, helical linker, DOM7h-14 fusion; GLP-1 (7-37) A8G, helical linker, DOM7h-14 fusion
With B3, the dissociation constant Kd with Rat serum albumin was found to be 800 nM; in the experiment with Human serum albumin it was 110 nM; with Mouse serum albumin, 110 nM.

The values are drawn from patent US20130189255A1 (GlaxoSmithKline, published 2013).
